We go through 1 substance from paper PMC6104738.

This assay concerns the target EBOV GP [change] (residues 1-636; strain Makona) (Zaire ebolavirus (EBOV), strain Makona). Put plainly: negative-stain electron microscopy; purified EBOV GP ΔTM alone.

Regarding “EBOV GP [change] (residues 1-636; strain Makona) (domain or fragment)”, the stoichiometry N was 3.

By stoichiometry N is commonly meant a count of units in the complex or per binding partner.
